From paper PMC5688128, “Structural basis for tRNA-dependent cysteine biosynthesis” (Nature Communications, 2017)
Blank lines part the entries; values can stand above or below the molecule they belong to.

B2: O-phosphoseryl-tRNA synthetase (SepRS), Methanocaldococcus jannaschii (enzyme)
chain: MRFDIKKVLELAEKDFETAWRETRALIKDKHIDNKYPRLKPVYGKPHPVMETIERLRQAYLRMGFEEMINPVIVDEMEIYKQFGPEAMAVLDRCFYLAGLPRPDVGLGNEKVEIIKNLGIDIDEEKKERLREVLHLYKKGAIDGDDLVFEIAKALNVSNEMGLKVLETAFPEFKDLKPESTTLTLRSHMTSGWFITLSSLIKKRKLPLKLFSIDRCFRREQREDRSHLMSYHSASCVVVGEDVSVDDGKVVAEGLLAQFGFTKFKFKPDEKKSKYYTPETQTEVYAYHPKLGEWIEVATFGVYSPIALAKYNIDVPVMNLGLGVERLAMIIYGYEDVRAMVYPQFYEYRLSDRDIAGMIRVDKVPILDEFYNFANELIDICIANKDKESPCSVEVKREFNFNGERRVIKVEIFENEPNKKLLGPSVLNEVYVYDGNIYGIPPTFEGVKEQYIPILKKAKEEGVSTNIRYIDGIIYKLVAKIEEALVSNVDEFKFRVPIVRSLSDINLKIDELALKQIMGENKVIDVRGPVFLNAKVEIK
notes: O-phosphoseryl-tRNA synthetase (SepRS) of Methanocaldococcus jannaschii; wild type; source: E. coli B834(DE3) plus pRARE2, purified (heat treatment 75 °C, HisTrap, Heparin, Superdex 200)

Columns and labels:
[1] = biological target: T1, SepCysS (SepCysE-SepCysS-tRNA^Cys complex) (Methanocaldococcus jannaschii, UniProt Q59072); assay: X-ray crystal structure, […] Å; type: binding; details: covalent; Lys234; crystallised at pH 5.0 with tRNA^Cys
T1 construct: gene pscS; recombinant, coexpressed with SepCysE in E. coli B834(DE3); SepCysS homodimer; co-crystal with tRNA^Cys; with SepRS/SepCysS pathway enhancer SepCysE
T1 sequence (Q59072 whole entry, one chain of several): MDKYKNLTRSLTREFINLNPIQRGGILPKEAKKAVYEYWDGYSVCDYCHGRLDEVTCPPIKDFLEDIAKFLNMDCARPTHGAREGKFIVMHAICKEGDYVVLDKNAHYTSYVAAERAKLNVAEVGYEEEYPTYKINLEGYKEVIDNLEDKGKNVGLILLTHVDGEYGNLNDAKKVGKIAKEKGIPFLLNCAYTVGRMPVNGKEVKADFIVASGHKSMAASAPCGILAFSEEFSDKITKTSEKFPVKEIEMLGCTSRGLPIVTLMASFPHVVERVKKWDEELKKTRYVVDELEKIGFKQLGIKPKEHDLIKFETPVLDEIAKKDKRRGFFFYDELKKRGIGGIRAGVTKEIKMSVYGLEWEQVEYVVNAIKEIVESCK

[2] = biological target: T2, SepRS (SepRS-SepCysE-SepCysS ternary complex, transsulfursome) (Methanocaldococcus jannaschii, UniProt Q59054); assay: X-ray crystal structure, […] Å; type: binding; details: 10 mM ATP in crystallisation, pH 7.0; active site, Arg228, Glu230, His237, Tyr240; bent ATP
T2 construct: gene sepS; recombinant from E. coli B834(DE3), pET-15b; SepRS tetramer; only SepRS and SepCysE N-helix (Met1-Lys24) visible; with SepRS/SepCysS pathway enhancer SepCysE; O-phospho-L-seryl-tRNA:Cys-tRNA synthase

[3] = biological target: B2; assay: SEC-SAXS; SepCysE(CTD)-truncated transsulfursome in solution; Superdex 200 Increase 10/300 GL, room temperature; scattering compared with models from the crystal structures; details: both partners purified
[4] = biological target: the molecule itself; assay: crystal structure; 50 μM SepRS-SepCysE-SepCysS(del_RRF), 30 μM tRNA^Cys, 10 mM ATP; 0.1 M Tris-HCl pH 7.0, 0.3 M ammonium sulfate, 36% MPD; 3.10 Å; only SepRS and the N-helix of SepCysE visible; PDB 5X6C
[5] = biological target: the molecule itself; assay: crystal structure; SepCysE-SepCysS mixed with tRNA^Cys at a molar ratio of 1:1.2, protein 16 mg/ml; 0.1 M MES pH 5.0, 2.4 M ammonium sulfate; 2.6 Å; PDB 5X6B
[6] = biological target: B2; assay: negative stain electron microscopy; purified wild type and del_linker1 transsulfursome adsorbed on carbon-coated grids; 20 mM HEPES-KOH pH 8.0, 200 mM KCl, 5 mM MgCl2; uranyl formate; class averaging; details: both partners purified

Molecule: Cc1ncc(COP(=O)(O)O)c(C=O)c1O [pyridoxal-5′-phosphate]
X-ray crystal structure, 2.6 Å [1]: PLP was covalently bound to the side chain of the conserved Lys234

Molecule: Nc1ncnc2c1ncn2[C@@H]1O[C@H](COP(=O)(O)OP(=O)(O)OP(=O)(O)O)[C@@H](O)[C@H]1O [ATP]
X-ray crystal structure, 3.1 Å [2]: ATP was observed in the active sites of SepRS.

binding result [3]: binds
B1: CTD-truncated SepCysE of M. jannaschii (domain or fragment, Methanocaldococcus jannaschii, UniProt Q58876 1-110, looked up)
chain: MRVEYSKDLIRKGISTISQLKKAKIRVEKDDKKISYKDAKPGKIDVNEFKKAIYLLIEADDFLYKKAPKHELNEEEAKEFCKLIIKCQEHLNKILANFGFEFEEKEIDEG
notes: also called SepCysE(CTD)-truncated; source: E. coli B834(DE3) plus pRARE2, purified within the transsulfursome (same procedure as the wild type)

Molecule: B2
stoichiometry N [4]: 4

binding result [6]: binds
B3: SepCysE (SepRS/SepCysS pathway enhancer), Methanocaldococcus jannaschii (natural protein)
chain: MRVEYSKDLIRKGISTISQLKKAKIRVEKDDKKISYKDAKPGKIDVNEFKKAIYLLIEADDFLYKKAPKHELNEEEAKEFCKLIIKCQEHLNKILANFGFEFEEKEIDEGALYIVSNKKLFKKLKNKNPNLKVVCTEGMLDIEDMRAIGVPEKALEGLKKKVEIARKNVERFIEKYKPEKIFVVVEDDKDELLYLRAKNLYNAEKLDADEILD
notes: SepCysE of Methanocaldococcus jannaschii; wild type
stoichiometry N [5]: 2

binding result [6]: binds
B4: SepCysE(del_linker1) of M. jannaschii, 10 residues of linker1 truncated (natural protein, Methanocaldococcus jannaschii)
chain: MRVEYSKDLIRKGISTISQLKKAKSYKDAKPGKIDVNEFKKAIYLLIEADDFLYKKAPKHELNEEEAKEFCKLIIKCQEHLNKILANFGFEFEEKEIDEGALYIVSNKKLFKKLKNKNPNLKVVCTEGMLDIEDMRAIGVPEKALEGLKKKVEIARKNVERFIEKYKPEKIFVVVEDDKDELLYLRAKNLYNAEKLDADEILD
notes: source: E. coli B834(DE3) plus pRARE2, purified within the transsulfursome (same procedure as the wild type)

B5: Sep-tRNA:Cys-tRNA synthase (SepCysS), Methanocaldococcus jannaschii (enzyme)
chain: DKYKNLTRSLTREFINLNPIQRGGILPKEAKKAVYEYWDGYSVCDYCHGRLDEVTCPPIKDFLEDIAKFLNMDCARPTHGAREGKFIVMHAICKEGDYVVLDKNAHYTSYVAAERAKLNVAEVGYEEEYPTYKINLEGYKEVIDNLEDKGKNVGLILLTHVDGEYGNLNDAKKVGKIAKEKGIPFLLNCAYTVGRMPVNGKEVKADFIVASGHKSMAASAPCGILAFSEEFSDKITKTSEKFPVKEIEMLGCTSRGLPIVTLMASFPHVVERVKKWDEELKKTRYVVDELEKIGFKQLGIKPKEHDLIKFETPVLDEIAKKDKRRGFFFYDELKKRGIGGIRAGVTKEIKMSVYGLEWEQVEYVVNAIKEIVESCK
modifications: PLP covalently bound to the side chain of Lys234
notes: Sep-tRNA:Cys-tRNA synthase (SepCysS) of Methanocaldococcus jannaschii; wild type; large domain Gly43-Lys295, small domain Trp296-Lys396; Homodimer
stoichiometry N [5]: 2
